Measurements from article PMC8450099.
Read-outs that look alike come from different tables or passages of the source.

Assays:
Assay in all cases: MST
[1] = target: T1, Mlh1-FKBP464 (Complex #2 subunit);Pms1-FRB627 (Complex #2 subunit) (Saccharomyces cerevisiae (baker's …, UniProt P38920;P14242 1-464+=GS+P62942:2-108+=GS+465-769;1-627+=[…]+628-873, internal_change|internal_change)
[2] = target: T2, Mlh1-FRB355,FKBP464 (Complex #1 subunit);Pms1 (Saccharomyces cerevisiae (baker's …, UniProt P38920;P14242 1-355+=[…]+356-464+=GS+P62942:2-108+=GS+465-769;1-873, internal_change|)
[3] = target: T3, Mlh1;Pms1 (Saccharomyces cerevisiae (baker's …, UniProt P38920;P14242 1-769;1-873, |))
[4] = target: T1, Mlh1-FKBP464 (Complex #2 …); remark: listed apart in the source
[5] = target: T2, Mlh1-FRB355,FKBP464 (Complex #1 …); remark: listed apart in the source
[6] = target: T3, Mlh1;Pms1; remark: listed apart in the source
[7] = target: T4, Mlh1-FRB355 (Complex #5 subunit);Pms1-FKBP460 (Complex #5 subunit) (Saccharomyces cerevisiae (baker's …, UniProt P38920;P14242 1-355+=[…]+356-769;1-460+=GS+P62942:2-108+=GS+461-873, internal_change|internal_change)
[8] = target: T1, Mlh1-FKBP464 (Complex #2 …); remark: listed apart in the source
[9] = target: T2, Mlh1-FRB355,FKBP464 (Complex #1 …); remark: listed apart in the source
[10] = target: T3, Mlh1;Pms1; remark: listed apart in the source
[11] = target: T4, Mlh1-FRB355 (Complex #5 …); remark: listed apart in the source
[12] = target: T1, Mlh1-FKBP464 (Complex #2 …); remark: listed apart in the source
[13] = target: T3, Mlh1;Pms1; remark: listed apart in the source

B1: homoduplex AO4549/AO4548 (48-mer in Methods, called 49 bp in Results) (dsDNA)
DNA 1: CTGGACGGGTTAAGACCGAACGTGGCTCCAGAAACGGGTGCAACTGGG
DNA 2: CCCAGTTGCACCCGTTTCTGGAGCCACGTTCGGTCTTAACCCGTCCAG
For B1, the Kd [1] was 211 nM, the Kd [2] was 198 nM and the Kd [3] was 173 nM. It also gave a Kd [4] of 207 nM, a Kd [5] of 98.4 nM and a Kd [6] of 141 nM. The Kd [7] was 287 nM, the Kd [8] was 431 nM and the Kd [9] was 421 nM. It also gave a Kd [10] of 675 nM, a Kd [11] of 556 nM and a Kd [12] of 391 nM. The Kd [13] was 628 nM.
